{"source": "the supplement of paper PMC11316812", "key": {"MCF7": {"tested_on": "MCF7", "test": "percentage of EdU-negative (G0-arrested) nuclei per well, 72 h; higher = more G0 arrest", "conditions": "reference: sequence is the full UniProt precursor, the tested protein was the secreted form or ectodomain"}, "hTERT-HMEC": {"tested_on": "hTERT-HMEC", "test": "percentage of EdU-negative (G0-arrested) nuclei per well, 72 h; higher = more G0 arrest", "conditions": "reference: sequence is the full UniProt precursor, the tested protein was the secreted form or ectodomain"}, "[1]": {"conditions": "protein concentration 0.03125 µM"}, "[2]": {"conditions": "protein concentration 0.3125 µM"}, "[3]": {"conditions": "protein concentration 0.00925 µM"}, "[4]": {"conditions": "protein concentration 0.0925 µM"}, "[5]": {"conditions": "protein concentration 0.0225 µM"}, "[6]": {"conditions": "protein concentration 0.0211825 µM"}, "[7]": {"conditions": "protein concentration 0.211825 µM"}}, "note": "± gives the standard deviation of the averaged measurements.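 Further: secreted proteins added to cultured cells, EdU pulse at the end, nuclei found by Hoechst imaging, EdU status from nuclear versus surrounding ring intensity ratio, PBS as neutral control.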", "data": [{"sequence": "MSRLPVLLLLQLLVRPGLQAPMTQTTPLKTSWVNCSNMIDEIITHLKQPPLPLLDFNNLNGEDQDILMENNLRRPNLEAFNRAVKSLQNASAIESILKNLLPCLPLATAAPTRHPIHIKDGDWNEFRRKLTFYLKTLENAQAQQTTLSLAIF", "values": [{"measurement": "percentage of EdU-negative", "setting": "MCF7; [1]", "result": "27.8 ± 0.94", "unit": "%"}, {"measurement": "percentage of EdU-negative", "setting": "MCF7; [2]", "result": "23.6 ± 1.8", "unit": "%"}, {"measurement": "percentage of EdU-negative", "setting": "hTERT-HMEC; [1]", "result": "5.21 ± 0.57", "unit": "%"}, {"measurement": "percentage of EdU-negative", "setting": "hTERT-HMEC; [2]", "result": "4.85 ± 0.58", "unit": "%"}]}, {"sequence": "MLPAPAAPRWPPLLLLLLLLLPLARGAPARPAAGGQASELVVPTRLPGSAGELALHLSAFGKGFVLRLAPDDSFLAPEFKIERLGGSGRATGGERGLRGCFFSGTVNGEPESLAAVSLCRGLSGSFLLDGEEFTIQPQGAGGSLAQPHRLQRWGPAGARPLPRGPEWEVETGEGQRQERGDHQEDSEEESQEEEAEGASEPPPPLGATSRTKRFVSEARFVETLLVADASMAAFYGADLQNHILTLMSVAARIYKHPSIKNSINLMVVKVLIVEDEKWGPEVSDNGGLTLRNFCNWQRRFNQPSDRHPEHYDTAILLTRQNFCGQEGLCDTLGVADIGTICDPNKSCSVIEDEGLQAAHTLAHELGHVLSMPHDDSKPCTRLFGPMGKHHVMAPLFVHLNQTLPWSPCSAMYLTELLDGGHGDCLLDAPAAALPLPTGLPGRMALYQLDQQCRQIFGPDFRHCPNTSAQDVCAQLWCHTDGAEPLCHTKNGSLPWADGTPCGPGHLCSEGSCLPEEEVERPKPVADGGWAPWGPWGECSRTCGGGVQFSHRECKDPEPQNGGRYCLGRRAKYQSCHTEECPPDGKSFREQQCEKYNAYNYTDMDGNLLQWVPKYAGVSPRDRCKLFCRARGRSEFKVFEAKVIDGTLCGPETLAICVRGQCVKAGCDHVVDSPRKLDKCGVCGGKGNSCRKVSGSLTPTNYGYNDIVTIPAGATNIDVKQRSHPGVQNDGNYLALKTADGQYLLNGNLAISAIEQDILVKGTILKYSGSIATLERLQSFRPLPEPLTVQLLTVPGEVFPPKVKYTFFVPNDVDFSMQSSKERATTNIIQPLLHAQWVLGDWSECSSTCGAGWQRRTVECRDPSGQASATCNKALKPEDAKPCESQLCPL [Q9UP79]", "values": [{"measurement": "percentage of EdU-negative", "setting": "MCF7; [3]", "result": "25.7 ± 2", "unit": "%"}, {"measurement": "percentage of EdU-negative", "setting": "MCF7; [4]", "result": "26.53 ± 0.069", "unit": "%"}, {"measurement": "percentage of EdU-negative", "setting": "hTERT-HMEC; [3]", "result": "5.77 ± 1.1", "unit": "%"}, {"measurement": "percentage of EdU-negative", "setting": "hTERT-HMEC; [4]", "result": "6.06 ± 0.51", "unit": "%"}]}, {"sequence": "MWLLPALLLLCLSGCLSLKGPGSVTGTAGDSLTVWCQYESMYKGYNKYWCRGQYDTSCESIVETKGEEKVERNGRVSIRDHPEALAFTVTMQNLNEDDAGSYWCKIQTVWVLDSWSRDPSDLVRVYVSPAITTPRRTTHPATPPIFLVVNPGRNLSTGEVLTQNSGFRLSSPHFLLVVLLKLPLLLSMLGAVFWVNRPQWAPPGR [Q496F6]", "values": [{"measurement": "percentage of EdU-negative", "setting": "MCF7; [5]", "result": "23.3 ± 1.9", "unit": "%"}, {"measurement": "percentage of EdU-negative", "setting": "MCF7; protein concentration 0.225 µM", "result": "26.6 ± 0.81", "unit": "%"}, {"measurement": "percentage of EdU-negative", "setting": "hTERT-HMEC; [5]", "result": "5.54 ± 0.7", "unit": "%"}, {"measurement": "percentage of EdU-negative", "setting": "hTERT-HMEC; protein concentration 0.225 µM", "result": "5.97 ± 1.6", "unit": "%"}]}, {"sequence": "MKLLHVFLLFLCFHLRFCKVTYTSQEDLVEKKCLAKKYTHLSCDKVFCQPWQRCIEGTCVCKLPYQCPKNGTAVCATNRRSFPTYCQQKSLECLHPGTKFLNNGTCTAEGKFSVSLKHGNTDSEGIVEVKLVDQDKTMFICKSSWSMREANVACLDLGFQQGADTQRRFKLSDLSINSTECLHVHCRGLETSLAECTFTKRRTMGYQDFADVVCYTQKADSPMDDFFQCVNGKYISQMKACDGINDCGDQSDELCCKACQGKGFHCKSGVCIPSQYQCNGEVDCITGEDEVGCAGFASVTQEETEILTADMDAERRRIKSLLPKLSCGVKNRMHIRRKRIVGGKRAQLGDLPWQVAIKDASGITCGGIYIGGCWILTAAHCLRASKTHRYQIWTTVVDWIHPDLKRIVIEYVDRIIFHENYNAGTYQNDIALIEMKKDGNKKDCELPRSIPACVPWSPYLFQPNDTCIVSGWGREKDNERVFSLQWGEVKLISNCSKFYGNRFYEKEMECAGTYDGSIDACKGDSGGPLVCMDANNVTYVWGVVSWGENCGKPEFPGVYTKVANYFDWISYHVGRPFISQYNV", "values": [{"measurement": "percentage of EdU-negative", "setting": "MCF7; protein concentration 0.021 µM", "result": "24.6 ± 0.98", "unit": "%"}, {"measurement": "percentage of EdU-negative", "setting": "MCF7; protein concentration 0.21 µM", "result": "27.3 ± 1.3", "unit": "%"}, {"measurement": "percentage of EdU-negative", "setting": "hTERT-HMEC; protein concentration 0.021 µM", "result": "4.11 ± 0.1", "unit": "%"}, {"measurement": "percentage of EdU-negative", "setting": "hTERT-HMEC; protein concentration 0.21 µM", "result": "4.288 ± 0.024", "unit": "%"}]}, {"sequence": "MARVLGAPVALGLWSLCWSLAIATPLPPTSAHGNVAEGETKPDPDVTERCSDGWSFDATTLDDNGTMLFFKGEFVWKSHKWDRELISERWKNFPSPVDAAFRQGHNSVFLIKGDKVWVYPPEKKEKGYPKLLQDEFPGIPSPLDAAVECHRGECQAEGVLFFQGDREWFWDLATGTMKERSWPAVGNCSSALRWLGRYYCFQGNQFLRFDPVRGEVPPRYPRDVRDYFMPCPGRGHGHRNGTGHGNSTHHGPEYMRCSPHLVLSALTSDNHGATYAFSGTHYWRLDTSRDGWHSWPIAHQWPQGPSAVDAAFSWEEKLYLVQGTQVYVFLTKGGYTLVSGYPKRLEKEVGTPHGIILDSVDAAFICPGSSRLHIMAGRRLWWLDLKSGAQATWTELPWPHEKVDGALCMEKSLGPNSCSANGPGLYLIHGPNLYCYSDVEKLNAAKALPQPQNVTSLLGCTH", "values": [{"measurement": "percentage of EdU-negative", "setting": "MCF7; [6]", "result": "26.5 ± 0.3", "unit": "%"}, {"measurement": "percentage of EdU-negative", "setting": "MCF7; [7]", "result": "26.7 ± 0.95", "unit": "%"}, {"measurement": "percentage of EdU-negative", "setting": "hTERT-HMEC; [6]", "result": "5.25 ± 0.85", "unit": "%"}, {"measurement": "percentage of EdU-negative", "setting": "hTERT-HMEC; [7]", "result": "6.11 ± 0.9", "unit": "%"}]}]}
